Measured values as given in US20030022353.

B1: Mch2α (protein)
chain: MSSASGLRRGHPAGGEENMTETDAFYKREMFDPAEKYKMDHRRRGIALIFNHERFFWHLTLPERRRTCADRDNLTRRFSDLGFEVKCFNDLKAEELLLKIHEVSTVSHADADCFVCVFLSHGEGNHIYAYDAKIEIQTLTGLFKGDKCHSLVGKPKIFIIQACRGNQHDVPVIPLDVVDNQTEKLDTNITEVDAASVYTLPAGADFLMCYSVAEGYYSHRETVNGSWYIQDLCEMLGKYGSSLEFTELLTLVNRKVSQRRVDFCKDPSAIGKKQVPCFASMLTKKLHFFPKSN
B2: ICEγ (protein)
chain: MADKVLKEKRKLFIRSMGEAPQAVQDNPAMPTSSGSEGNVKLCSLEEAQRIWKQKSAEIYPIMDKSSRTRLALIICNEEFDSIPRRTGAEVDITGMTMLLQNLGYSVDVKKNLTASDMTTELEAFAHRPEHKTSDSTFLVFMSHGIREGICGKKHSEQVPDILQLNAIFNMLNTKNCPSLKDKPKVIIIQACRGDSPGVVWFKDSVGVSGNLSLPTTEEFEDDAIKKAHIEKDFIAFCSSTPDNVSWRHPTMGSVFIGRLIEHMQEYACSCDVEEIFRKVRFSFEQPDGRAQMPTTERVTLTRCFYLFPGH
B3: Mch2β (protein)
chain: MSSASGLRRGHPAVSTVSHADADCFVCVFLSHGEGNHIYAYDAKIEIQTLTGLFKGDKCHSLVGKPKIFIIQACRGNQHDVPVIPLDVVDNQTEKLDTNITEVDAASVYTLPAGADFLMCYSVAEGYYSHRETVNGSWYIQDLCEMLGKYGSSLEFTELLTLVNRKVSQRRVDFCKDPSAIGKKQVPCFASMLTKKLHFFPKSN
B4: CPP32 (protein)
chain: MENTENSVDSKSIKNLEPKIIHGSESMDSGISLDNSYKMDYPEMGLCIIINNKNFHKSTGMTSRSGTDVDAANLRETFRNLKYEVRNKNDLTREEIVELMRDVSKEDHSKRSSFVCVLLSHGEEGIIFGTNGPVDLKKITNFFRGDRCRSLTGKPKLFIIQACRGTELDCGIETDSGVDDDMACHKIPVEADFLYAYSTAPGYYSWRNSKDGSWFIQSLCAMLKQYADKLEFMHILTRVNRKVATEFESFSFDATFHAKKQIPCIVSMLTKELYFYH

Biological target: human PARP, P09874
Sequence (P09874 whole entry, looked up): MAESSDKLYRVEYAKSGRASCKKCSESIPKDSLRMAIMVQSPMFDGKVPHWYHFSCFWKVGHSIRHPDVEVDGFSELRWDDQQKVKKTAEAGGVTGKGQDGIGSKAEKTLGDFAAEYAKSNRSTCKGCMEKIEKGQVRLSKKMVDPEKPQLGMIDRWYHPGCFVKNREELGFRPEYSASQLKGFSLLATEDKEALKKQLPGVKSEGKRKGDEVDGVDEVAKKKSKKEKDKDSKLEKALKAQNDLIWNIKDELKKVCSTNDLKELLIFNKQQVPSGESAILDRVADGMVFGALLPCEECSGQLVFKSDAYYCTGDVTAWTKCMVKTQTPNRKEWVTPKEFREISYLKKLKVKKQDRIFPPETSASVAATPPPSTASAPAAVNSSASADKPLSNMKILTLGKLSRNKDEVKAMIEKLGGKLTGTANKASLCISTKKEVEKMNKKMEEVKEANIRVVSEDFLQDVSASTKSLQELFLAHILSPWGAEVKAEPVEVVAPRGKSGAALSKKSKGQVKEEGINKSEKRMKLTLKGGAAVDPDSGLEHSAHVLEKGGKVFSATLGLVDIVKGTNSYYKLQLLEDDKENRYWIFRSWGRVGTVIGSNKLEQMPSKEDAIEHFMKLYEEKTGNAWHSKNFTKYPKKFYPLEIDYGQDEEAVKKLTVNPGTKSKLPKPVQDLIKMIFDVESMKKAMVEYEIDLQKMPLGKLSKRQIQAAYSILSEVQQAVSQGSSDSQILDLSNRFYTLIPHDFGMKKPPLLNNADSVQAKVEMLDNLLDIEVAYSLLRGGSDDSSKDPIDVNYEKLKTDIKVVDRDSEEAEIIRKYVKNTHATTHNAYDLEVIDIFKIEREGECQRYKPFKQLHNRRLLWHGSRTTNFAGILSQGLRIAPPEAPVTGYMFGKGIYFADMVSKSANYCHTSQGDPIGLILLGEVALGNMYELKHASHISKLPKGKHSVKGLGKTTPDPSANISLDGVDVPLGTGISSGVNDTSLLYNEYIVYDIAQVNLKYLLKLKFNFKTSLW

Row | Protein | cleavage of PARP in vitro, Western blot
1 | B1 | Mch2α also cleaved PAR: to generate a major product of ˜83 kDa and a minor product of ˜57 kDa similar to that obtained with CPP32
2 | B2 | PARP was not cleaved by Mch2β or ICEγ
3 | B3 | PARP was not cleaved by Mch2β or ICEγ
4 | B4 | CPP32 cleaved PARP to generate a major band of ˜90 kDa and a minor band of 57 kDa
